Experimental data from paper PMC5109273.

B1: non-fused full-length ICP47(1-88) with C-terminal mVenus-myc-His10 tag (natural protein)
chain: MSWALEMADTFLDTMRVGPRTYADVRDEINKRGREDREAARTAVHDPERPLLRSPGLLPEIAPNASLGVAHRRTGGTVTDSPRNPVTR

Key:
TAP (Homo sapiens) = TAP (Homo sapiens) (UniProt Q03518); settings: cited from earlier work
[1] = target: ICP47-TAP fusion complex with fused ICP47(∆1-11) (UniProt P03170); assay: co-IP; HEK293T co-transfected 1:1:5 (TAP1:TAP2:viral factor); solubilised in 2% digitonin; sequential precipitation via SBP tag (streptavidin agarose, biotin elution) and C8 tag (anti-C8 antibody on Dynabeads); co-precipitated mVenus-tagged viral factor quantified by SDS-PAGE and in-gel fluorescence relative to TAP lacking fused ICP47; on ice, pH 7.4

UniProt Q03518, sequence (Q03518 whole entry, chain 1 of 2, the tested form may be a part): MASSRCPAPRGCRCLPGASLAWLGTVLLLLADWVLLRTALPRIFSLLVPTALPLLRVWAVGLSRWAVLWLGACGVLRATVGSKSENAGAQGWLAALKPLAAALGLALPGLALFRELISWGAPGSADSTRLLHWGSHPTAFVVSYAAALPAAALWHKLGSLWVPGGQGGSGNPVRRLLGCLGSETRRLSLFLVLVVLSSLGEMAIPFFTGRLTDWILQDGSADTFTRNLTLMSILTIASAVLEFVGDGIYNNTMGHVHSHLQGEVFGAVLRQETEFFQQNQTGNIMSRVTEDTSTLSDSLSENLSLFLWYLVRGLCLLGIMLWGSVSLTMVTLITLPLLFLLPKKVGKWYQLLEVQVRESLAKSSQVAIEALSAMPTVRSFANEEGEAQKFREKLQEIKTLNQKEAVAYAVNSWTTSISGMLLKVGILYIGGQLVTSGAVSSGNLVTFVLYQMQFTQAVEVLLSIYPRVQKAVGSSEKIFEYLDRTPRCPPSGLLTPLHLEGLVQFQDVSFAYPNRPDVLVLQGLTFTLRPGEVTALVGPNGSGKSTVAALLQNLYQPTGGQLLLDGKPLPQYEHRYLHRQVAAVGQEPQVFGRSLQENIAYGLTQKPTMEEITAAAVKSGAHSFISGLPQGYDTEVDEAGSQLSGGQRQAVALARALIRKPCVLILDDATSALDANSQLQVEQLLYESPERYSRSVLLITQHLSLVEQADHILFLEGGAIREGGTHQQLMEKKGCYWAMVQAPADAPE
UniProt Q03518, sequence (Q03519 whole entry, chain 2 of 2, further chain, the tested form may be a part): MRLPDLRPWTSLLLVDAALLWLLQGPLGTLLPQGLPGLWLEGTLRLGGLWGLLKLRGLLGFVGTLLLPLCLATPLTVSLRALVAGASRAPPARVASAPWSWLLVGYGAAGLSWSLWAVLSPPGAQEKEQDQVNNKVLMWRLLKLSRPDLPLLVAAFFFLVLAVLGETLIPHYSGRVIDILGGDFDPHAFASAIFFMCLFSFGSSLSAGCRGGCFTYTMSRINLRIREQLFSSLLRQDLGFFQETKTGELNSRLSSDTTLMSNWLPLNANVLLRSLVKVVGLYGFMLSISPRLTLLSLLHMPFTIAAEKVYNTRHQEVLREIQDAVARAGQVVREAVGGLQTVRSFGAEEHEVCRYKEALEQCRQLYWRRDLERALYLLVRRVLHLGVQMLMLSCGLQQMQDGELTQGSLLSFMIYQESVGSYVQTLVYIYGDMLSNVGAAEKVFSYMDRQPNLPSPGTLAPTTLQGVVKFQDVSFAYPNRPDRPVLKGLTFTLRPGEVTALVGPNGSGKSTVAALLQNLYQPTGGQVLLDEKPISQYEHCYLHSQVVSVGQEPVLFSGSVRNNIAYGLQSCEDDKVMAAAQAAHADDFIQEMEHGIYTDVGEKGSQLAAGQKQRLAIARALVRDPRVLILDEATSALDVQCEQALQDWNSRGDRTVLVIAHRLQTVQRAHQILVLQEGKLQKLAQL

Molecule	Kd (TAP (Homo sapiens)) [nM]	co-precipitated viral factor relative to the TAP complex lacking fused ICP47 [1] [%]
ICP47 (from UniProt P03170)	50	
B1		100
